Biological target: T1, human OX40 (human, UniProt P43489 29-277)
T1 construct: whole, on cells; The construct used for transfection is not described; also called hOX40; OX40 receptor
T1 sequence (looked up): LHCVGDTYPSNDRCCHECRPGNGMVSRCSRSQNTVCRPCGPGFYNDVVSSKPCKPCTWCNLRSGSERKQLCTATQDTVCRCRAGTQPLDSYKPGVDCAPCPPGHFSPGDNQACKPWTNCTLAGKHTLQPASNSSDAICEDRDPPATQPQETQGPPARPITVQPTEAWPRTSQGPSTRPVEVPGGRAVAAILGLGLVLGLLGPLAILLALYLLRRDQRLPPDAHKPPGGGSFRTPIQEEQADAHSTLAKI
Test: flow cytometry on L/OX40 cells, FITC goat anti-human IgG

B1: chimeric 119-43-1 IgG1/κ antibody (antibody, V domains shown)
VH: EVKLEESGGGLVQPGGSMKLSCAASGFTFSDAWMDWVRQSPEKGLEWVAEIRSKANNHATYYAESVNGRFTISRDDSKSSVYLQMNSLRAEDTGIYYCTWGEVFYFDYWGQGTTLTVSS
VL: DIQMTQSPSSLSASLGGKVTITCKSSQDINKYIAWYQHKPGKGPRLLIHYTSTLQPGIPSRFSGSGSGRDYSFSISNLEPEDIATYYCLQYDNLLTFGAGTKLELKR
notes: also called Ch119-43-1
**Q.** Which EC50 does the source give for B1 here?
**A.** The EC50 was 0.96 µg/mL.
